{"source": "patent US20230190800A1", "target": "CD48 (UniProt P09326)", "sequence (P09326 27-220 limits assumed)": "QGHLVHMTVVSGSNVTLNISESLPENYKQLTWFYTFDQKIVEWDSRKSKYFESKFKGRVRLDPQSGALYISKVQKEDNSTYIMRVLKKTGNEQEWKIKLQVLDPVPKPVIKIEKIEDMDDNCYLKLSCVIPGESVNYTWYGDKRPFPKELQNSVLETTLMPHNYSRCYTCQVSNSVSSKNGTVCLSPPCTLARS", "experiment": "cell-based or functional assay"}
{"substance": "2B4 (CD244) (from UniProt Q9BZW8 22-370) (receptor)", "values": [{"measurement": "NK cells expressing MIP-1α after incubation with S2 cells expressing B7H7 and CD48", "value": 70, "unit": "%"}, {"measurement": "NK cells with at least 3 different responses after incubation with S2 cells expressing B7H7 and CD48", "value": 10, "unit": "%"}]}
